Target: Hr domain from the Acidothermus cellulolyticus P_(1B-5)-ATPase (P_(1B-5)-Hr) (Acidothermus cellulolyticus 11B)
Assay: SEC

Substance: Hr domain from the Acidothermus cellulolyticus P_(1B-5)-ATPase (P_(1B-5)-Hr) (domain or fragment)
- stoichiometry N: 2

From PMC2935145
